Experimental data from publication PMC9652377.

Target: β-arrestin-2-YFP, P32121
Assay: BRET (CXCR4-RLuc / βarr2-YFP) in HEK293T cells
Details: chain shown with the change; CXCL12 1e-6 M (highest concentration of the curve), 15 min; coel-h 10 min; parent: est. 0.11; read off a plot

β-arrestin-2-YFP, P32121, sequence (P32121 whole entry): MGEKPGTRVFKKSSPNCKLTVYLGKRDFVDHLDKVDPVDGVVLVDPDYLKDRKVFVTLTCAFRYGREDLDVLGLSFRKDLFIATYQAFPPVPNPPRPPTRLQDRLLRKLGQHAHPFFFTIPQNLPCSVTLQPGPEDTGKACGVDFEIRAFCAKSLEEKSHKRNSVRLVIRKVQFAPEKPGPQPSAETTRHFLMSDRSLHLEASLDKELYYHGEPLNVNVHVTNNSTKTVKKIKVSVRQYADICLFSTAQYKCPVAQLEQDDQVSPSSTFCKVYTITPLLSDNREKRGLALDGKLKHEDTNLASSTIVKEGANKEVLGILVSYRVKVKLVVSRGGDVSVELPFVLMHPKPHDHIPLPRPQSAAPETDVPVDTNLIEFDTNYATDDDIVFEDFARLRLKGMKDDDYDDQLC

B1: chemokine receptor CXCR4 WT, CXCR4-RLuc, P61073 V198F + V197M/V198W (protein)
chain: MEGISIYTSDNYTEEMGSGDYDSMKEPCFREENANFNKIFLPTIYSIIFLTGIVGNGLVILVMGYQKKLRSMTDKYRLHLSVADLLFVITLPFWAVDAVANWYFGNFLCKAVHVIYTVNLYSSVLILAFISLDRYLAIVHATNSQRPRKLLAEKVVYVGVWIPALLLTIPDFIFANVSEADDRYICDRFYPNDLWVMWFQFQHIMVGLILPGIVILSCYCIIISKLSHSKGHQKRKALKTTVILILAFFACWLPYYIGISIDSFILLEIIKQGCEFENTVHKWISITEALAFFHCCLNPILYAFLGAKFKTSAQHALTSVSRGSSLKILSKGKRGGHSSVSTESESSSFHSS
With B1 the response was 0.09 ΔBRET.
